Assay results taken from the supplement of paper PMC9732359.
± gives the uncertainty stated by the source.

Experiment: protein stability index of a GFP-peptide fusion (yeast GPS) (PSI 1-4); higher = more stable; sorted into four equal gates, so the index is relative within each strain
Procedure, shortened: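 Each library plasmid carries Cherry plus GFP with a tiled 17-residue yeast protein peptide fused downstream, and the pooled library was carried in yeast. Mid-log cultures in leucine-free medium were sorted into four equal gates by GFP/Cherry ratio. Reads from Illumina sequencing of PCR-amplified plasmids from each gate were assigned to strains by barcodes. Per peptide, the protein stability index was computed as the summed products of gate read frequency and gate number.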

Sequence	protein stability index (doa10∆)	protein stability index (pdr5∆)	protein stability index (san1∆)	protein stability index (ubr1∆)
GILLLDSLIQLANRSKE [YJL039C/NUP192]	1.86 ± 0.064	1.74 ± 0.059	1.64 ± 0.099	1.97 ± 0.051
AELVQKYIGEGSRMVRE [RPT6]	2.74 ± 0.088	2.69 ± 0.075	2.65 ± 0.075	2.33 ± 0.11
RVTNTTSTDFPGFSKDA [RPC40]	–	3.04 ± 0.21	–	–
LLIRSKTEDPKGGIIAS [YML031W/NDC1]	2.37 ± 0.14	2.36 ± 0.085	2.28 ± 0.085	2.66 ± 0.17
SVLNPFLLRRVKADVEK [ISW2]	1.15 ± 0.14	1.09 ± 0.068	1.18 ± 0.15	1.31 ± 0.12
AQAWINLGEYYAQIGDK [RPN7]	2.41 ± 0.11	2.77 ± 0.1	2.8 ± 0.11	2.76 ± 0.12
THRNKDGTGVRVIVAGT [FAS1]	2.16 ± 0.26	1.59 ± 0.082	1.62 ± 0.21	1.6 ± 0.15
DRNLTEFDSTDTSLCIN [RRI1]	2.98 ± 0.12	3 ± 0.12	2.59 ± 0.13	2.79 ± 0.067
KAFKNNSSKYYINEKES [SMC4]	2.54 ± 0.12	2.42 ± 0.07	2.27 ± 0.083	1.72 ± 0.064
KIRCFRYISTLTLYLFQ [IRR1]	1.69 ± 0.073	1.47 ± 0.077	1.64 ± 0.15	1.51 ± 0.14
TARINNRRLFKKCIDFF [RRI2]	2 ± 0.082	2.18 ± 0.059	1.91 ± 0.11	2.18 ± 0.054
EQGIELEHIDSKSEFAH [FAS2]	2.88 ± 0.096	2.15 ± 0.12	3.08 ± 0.13	2.15 ± 0.16
KTYNKLHYCVSCAIHAR [RPS26A]	1.21 ± 0.055	1.33 ± 0.087	1.31 ± 0.14	1.2 ± 0.12
SMKDRAQHAVILDQEKY [RPS25A]	1.55 ± 0.094	2 ± 0.13	2.42 ± 0.14	2.23 ± 0.081
HTQDIIGGMRVDENGDP [RET1]	3.2 ± 0.084	3.32 ± 0.073	3.17 ± 0.055	3.37 ± 0.054
LNELSAKDKEIYNKMIG [RPN13]	2.8 ± 0.092	2.65 ± 0.11	2.2 ± 0.11	2.83 ± 0.082
NIIASPLSAGFNYGKLP [SIN4]	2.62 ± 0.079	2.72 ± 0.086	2.68 ± 0.048	2.54 ± 0.076
EEELFEVTKEEDIIANY [RRP43]	3.17 ± 0.088	3.08 ± 0.073	3.19 ± 0.11	3.43 ± 0.077
INAEEIVDFTLPPPPPP [PRP8]	2.94 ± 0.07	3.06 ± 0.053	3.01 ± 0.047	3.04 ± 0.045
ADTKAPTFTFGSSALAD [YLR335W/NUP2]	3.25 ± 0.069	3.01 ± 0.053	3.08 ± 0.048	3.11 ± 0.033
ANNNGSNLQRAQNVPMN [GAL11]	3.09 ± 0.096	3.54 ± 0.12	3.17 ± 0.099	3.09 ± 0.085
KRGEVVKIIRKSETSGR [RPB5]	3.04 ± 0.082	3.17 ± 0.057	3.2 ± 0.064	3.05 ± 0.058
DDGDDEDLLECLDRCKE [MTR3]	2.57 ± 0.097	3.08 ± 0.084	2.87 ± 0.085	2.77 ± 0.11
STATRNVTMIDDLIHFT [COR1]	2.68 ± 0.097	2.81 ± 0.092	2.82 ± 0.086	2.89 ± 0.085
IDRGLFRSLFFRSYMDQ [RPB2]	3 ± 0.27	2.88 ± 0.27	1.86 ± 0.25	2.94 ± 0.084
GNSGVVRATFRNNLPAK [RPL33A]	2.88 ± 0.085	3.17 ± 0.12	3.19 ± 0.099	3.22 ± 0.067
NNTNTGASGVDDFQNFF [SWI1]	2.92 ± 0.068	3.16 ± 0.065	2.87 ± 0.069	3.31 ± 0.045

Sequence	protein stability index (doa10∆)	protein stability index (pdr5∆)	protein stability index (san1∆)	protein stability index (ubr1∆)
VFGFRANKMRQDRLSDL [SMC4]	–	–	–	2.74 ± 0.081
MFRNNYDGDTVTFSPTG [PRE5]	2.41 ± 0.12	2.84 ± 0.096	2.52 ± 0.11	3.18 ± 0.073
RFYELEESLTVLNCLRT [YJR042W/NUP85]	2 ± 0.14	2.25 ± 0.12	1.7 ± 0.29	2.62 ± 0.11
RMAKLCARFLGNRGFSI [RPO31]	2.35 ± 0.2	–	–	2.93 ± 0.2
RYLDNLKQEIDRGLSIK [SNU114]	3.02 ± 0.15	2.9 ± 0.17	3.4 ± 0.18	2.97 ± 0.082
QSNYGIYSSDAQGDPNL [NUT1]	3.03 ± 0.077	2.92 ± 0.065	2.51 ± 0.056	3.06 ± 0.063
ISTSDVTRIINSSEIQS [RPL4A]	2.39 ± 0.04	2.64 ± 0.054	2.34 ± 0.071	2.58 ± 0.043
IIPTTLEEQQQLEDESS [YML103C/NUP188]	1.88 ± 0.081	1.66 ± 0.08	2.67 ± 0.081	2.86 ± 0.099
DWGQALRLLLLLIEFPY [YJR042W/NUP85]	1.44 ± 0.05	1.29 ± 0.049	1.39 ± 0.067	1.21 ± 0.034
LNIGKNFAHSDSLSVPK [SIR4]	3.17 ± 0.085	3 ± 0.075	3.12 ± 0.042	3.2 ± 0.05
GWFHSHPGYDCWLSNID [RRI1]	2.85 ± 0.075	3.05 ± 0.054	2.77 ± 0.074	2.81 ± 0.071
SVKPHVVEPEHMADAKI [SIR4]	2.68 ± 0.14	2.92 ± 0.14	3.1 ± 0.1	3 ± 0.17
PLDTIETELPTLSLPDS [SMC1]	3 ± 0.12	2.92 ± 0.12	2.92 ± 0.083	3.09 ± 0.089
ALPDAVTIIEPKEEEPI [RPS3]	2.93 ± 0.059	2.99 ± 0.065	3.06 ± 0.061	3.04 ± 0.058
VRNYKPLINRLKHYNGY [SWI1]	1.79 ± 0.048	2.2 ± 0.045	2.57 ± 0.06	2.54 ± 0.039
PRALQPSQFGMLCTADT [RET1]	1.87 ± 0.1	1.57 ± 0.05	2.02 ± 0.13	2.18 ± 0.051
ESFESYHNLTTHNSYEK [RPN6]	3.19 ± 0.068	3.17 ± 0.065	2.84 ± 0.075	3.28 ± 0.044
PQFDSTQPKSSSSMDMQ [SSN3]	2.94 ± 0.069	3 ± 0.068	2.95 ± 0.05	3.02 ± 0.044
TFENINSLFYLKWSACT [IRR1]	1.26 ± 0.082	1.35 ± 0.082	1.27 ± 0.17	1.21 ± 0.051
VMNTKLLQEGGSLSGNS [ESC2]	3.27 ± 0.14	3.44 ± 0.14	3.13 ± 0.099	3.07 ± 0.19
AIMSKSSLEELLLKDQQ [ECM29]	2.83 ± 0.09	2.93 ± 0.073	2.83 ± 0.1	2.98 ± 0.05
QFLQLDNDGFSFLMRQF [ECM29]	1.33 ± 0.042	1.54 ± 0.061	1.45 ± 0.072	1.83 ± 0.051
LDDWISIGYETELKKIT [IRR1]	2.09 ± 0.07	2.75 ± 0.078	2.33 ± 0.14	2.58 ± 0.053
VSSLPGSTDKSLDFLNQ [COR1]	3.45 ± 0.18	–	3.02 ± 0.28	–
IVPDLIINPHAIPSRMT [RPB2]	1.81 ± 0.048	2 ± 0.042	1.75 ± 0.068	2.16 ± 0.047
NKRWKVDIGGKQHAVLM [RRP4]	2.87 ± 0.064	3.25 ± 0.067	3.18 ± 0.05	3.2 ± 0.037
